34 variants from the Human Domainome abundance scans (Beltran et al. 2025) can be followed below.

The chains are these.
B1: Protein C-ets-1, residues 55 to 135; numbered along this chain, P14921 (parent)
chain: GFTKEQQRLGIPKDPRQWTETHVRDWVMWAVNEFSLKGVDFQKFCMNGAALCALGKDCFLELAPDFVGDILWEHLEILQKE

± gives the uncertainty stated by the source.

In this data set the parent is B1. Briefly: abundance fitness (aPCA) (normalised: wild type 0, dead -1); higher = more abundant; growth selection in yeast, the domain comes from the species named. The following applies: Homo sapiens.
With GFTKEQQRLGIPKDPRQWTETHVRDWVMWAVNEFSLKGVDFQKFCMNGAALCALGKDCFLELAPDFVGDILWYHLEILQKE [E73Y], the abundance fitness was -0.319 ± 0.11.
As to GFTKEQQLLGIPKDPRQWTETHVRDWVMWAVNEFSLKGVDFQKFCMNGAALCALGKDCFLELAPDFVGDILWEHLEILQKE [R8L], the abundance fitness is -0.086 ± 0.039.
GFTKEQQTLGIPKDPRQWTETHVRDWVMWAVNEFSLKGVDFQKFCMNGAALCALGKDCFLELAPDFVGDILWEHLEILQKE [R8T]: the abundance fitness was -0.111 ± 0.071.
As for GFTKEQVRLGIPKDPRQWTETHVRDWVMWAVNEFSLKGVDFQKFCMNGAALCALGKDCFLELAPDFVGDILWEHLEILQKE [Q7V], the abundance fitness was -0.028 ± 0.033.
As for GFTKEQSRLGIPKDPRQWTETHVRDWVMWAVNEFSLKGVDFQKFCMNGAALCALGKDCFLELAPDFVGDILWEHLEILQKE [Q7S], the abundance fitness was -0.069 ± 0.039.
Turning to GFTKEQQRLGIPKDPRQWTETHVRDWVMWAVNEFSLKGVDFQKFCMNGAALCALGKRCFLELAPDFVGDILWEHLEILQKE [D57R], the abundance fitness was -0.063 ± 0.034.
The value for GFTKEQQRLGIPKDPRQWTETHVRDWVMWAVNEFSLKGVDFQKFCMNGAALCALGKACFLELAPDFVGDILWEHLEILQKE [D57A] was -0.049 ± 0.029; that for YFTKEQQRLGIPKDPRQWTETHVRDWVMWAVNEFSLKGVDFQKFCMNGAALCALGKDCFLELAPDFVGDILWEHLEILQKE [G1Y] was -0.114 ± 0.2.
Consider GFTKEQQRLGIPKDPRQWTETHVRDWVMTAVNEFSLKGVDFQKFCMNGAALCALGKDCFLELAPDFVGDILWEHLEILQKE [W29T], for which the abundance fitness was -0.515 ± 0.047.
Take GFTKEQQRLGIPKDPRQWTETHVRDWVMAAVNEFSLKGVDFQKFCMNGAALCALGKDCFLELAPDFVGDILWEHLEILQKE [W29A]: the abundance fitness was -0.415 ± 0.036.
The value for GFTQEQQRLGIPKDPRQWTETHVRDWVMWAVNEFSLKGVDFQKFCMNGAALCALGKDCFLELAPDFVGDILWEHLEILQKE [K4Q] was -0.031 ± 0.054; that for GFTAEQQRLGIPKDPRQWTETHVRDWVMWAVNEFSLKGVDFQKFCMNGAALCALGKDCFLELAPDFVGDILWEHLEILQKE [K4A] was -0.178 ± 0.051; that for GFTVEQQRLGIPKDPRQWTETHVRDWVMWAVNEFSLKGVDFQKFCMNGAALCALGKDCFLELAPDFVGDILWEHLEILQKE [K4V] was -0.098 ± 0.036.
With GFTKEQQRLGIPKDPRQWTETHVRDWVMWAVNEFSLKGVDFQKFCMNGAALCALGKDCFLELAPDFLGDILWEHLEILQKE [V67L], the abundance fitness is -0.256 ± 0.061.
With GYTKEQQRLGIPKDPRQWTETHVRDWVMWAVNEFSLKGVDFQKFCMNGAALCALGKDCFLELAPDFVGDILWEHLEILQKE [F2Y], the abundance fitness was -0.161 ± 0.076.
In the case of GFTKEQQRLGIPKDPRQWTETHVRDWVMWAVNEFSLKGVDFGKFCMNGAALCALGKDCFLELAPDFVGDILWEHLEILQKE [Q42G], the abundance fitness came to 0.007 ± 0.035.
Consider GFTKEQQRLGIPKDPRQWTETHVRDWVMWAVNEFSLKGVDFQKFCMNGAALCALYKDCFLELAPDFVGDILWEHLEILQKE [G55Y], for which the abundance fitness was -0.502 ± 0.064.
Turning to GFTKEQQRLGIPKDPRQWTETHVRDWVMWAVNEFSLKGVDFQKFCMNGAALCALGKDCFLELAPDFVGDILWEHLGILQKE [E76G], the abundance fitness is -0.036 ± 0.033.
The value for GFTKEQQRLGIPKDPRQWTETHVRDWVMWAVNEFSLKGVDFQKFCMNGAALCALGKDCFLELAPDFVGDILAEHLEILQKE [W72A] was -0.52 ± 0.053.
Under GFTKEQQRLGIPKDPRQWTETHVRDWVMWAVNEFSLKGVDFQKFCMNGAALCALGKDCFLELAPDFVGDILMEHLEILQKE [W72M] stands -0.389 ± 0.078; under GFTKEQQRLGDPKDPRQWTETHVRDWVMWAVNEFSLKGVDFQKFCMNGAALCALGKDCFLELAPDFVGDILWEHLEILQKE [I11D], -0.647 ± 0.1.
On to GFTKEQQRLGIPKDPRQWTETHVRDWVMWAVNEFSLKGVDFQKFCMNGAALCALGKDCFLELAPDFVGDILWELLEILQKE [H74L], for which the abundance fitness was -0.198 ± 0.039.
In the case of GFTKEQQRLGIPKDPRQWTETHVRDWVMWAVNEFSLKGVDFQKFCMNGAALCRLGKDCFLELAPDFVGDILWEHLEILQKE [A53R], the abundance fitness is -0.046 ± 0.024.
Turning to GFTKEQQRLGIPKDPRQWTETHVRDWVMWAVNEHSLKGVDFQKFCMNGAALCALGKDCFLELAPDFVGDILWEHLEILQKE [F34H], the abundance fitness was -0.084 ± 0.059.
Under GFTKEQQRLGIPKDPRQWTETHVRDWVMWAVNEPSLKGVDFQKFCMNGAALCALGKDCFLELAPDFVGDILWEHLEILQKE [F34P] stands -0.886 ± 0.06; under GFTKEQQRLGIPKDPRQWTETHVRDWVMWAVNEFSLKGVDFQKFCMNLAALCALGKDCFLELAPDFVGDILWEHLEILQKE [G48L], -1.05 ± 0.086; under GFTKEQQRLGIPKDPRQWTETHVRDWVMWAVNEFSLKGVDFQKFCMNGAALCALGKDCFLELAPDFVGDLLWEHLEILQKE [I70L], -0.077 ± 0.037.
The value for GFTKEQQRLGIPKDPRQWTETHVRDWVMWAVNEFSLKGVDFQKFCMNGAALCALGKDCFLELAPDFVGDTLWEHLEILQKE [I70T] was -0.008 ± 0.041; that for GFTKEQQRLGIPKDPRQWTETHVRDWVMWAVNEFSLKGVDFQKFCMNGAALCALGKDCFLELAPDFVGDCLWEHLEILQKE [I70C] was -0.088 ± 0.059.
GFTKEQQRLGIPKDPRQWTETHVRDWVMWAVNEFSLKGVDFQKFCLNGAALCALGKDCFLELAPDFVGDILWEHLEILQKE [M46L]: the abundance fitness was -0.074 ± 0.036.
Under GFTKEQQRLGIPKDPRQWTETHVRDWVMWAVNEFSLKGVDFQKFCKNGAALCALGKDCFLELAPDFVGDILWEHLEILQKE [M46K] stands -0.376 ± 0.065; under GFTKEQQRLGIPKDPRQWTETHVRDWVMWAVNEFSLKGVDFQIFCMNGAALCALGKDCFLELAPDFVGDILWEHLEILQKE [K43I], -0.424 ± 0.11; under GFTKEQQRLGIPKDPRQWTETHVRDWVMWAVNEFSLKGVDFQHFCMNGAALCALGKDCFLELAPDFVGDILWEHLEILQKE [K43H], -0.187 ± 0.087.
The value for GFTKEQQRLGIPKPPRQWTETHVRDWVMWAVNEFSLKGVDFQKFCMNGAALCALGKDCFLELAPDFVGDILWEHLEILQKE [D14P] was -0.813 ± 0.068.
